The source of these data is publication doi:10.1101/2023.07.25.550451 (bioRxiv, 2023).

Experiment [1] addresses T1, p97, wild-type, full-length (recombinant) (human, UniProt P55072 1-806). Briefly: pull-down.
Experiment [2] deals with T1, p97, wild-type, full-length …. Nature of the experiment: pull-down. This is another data set of the same source.

Like-named read-outs stand apart in the source and are kept apart here. * marks the point of attachment. Biotin = O=C1N[C@H]2[C@H](CS[C@H]2CCCCC(=O)*)N1

T1 sequence (P55072 whole entry): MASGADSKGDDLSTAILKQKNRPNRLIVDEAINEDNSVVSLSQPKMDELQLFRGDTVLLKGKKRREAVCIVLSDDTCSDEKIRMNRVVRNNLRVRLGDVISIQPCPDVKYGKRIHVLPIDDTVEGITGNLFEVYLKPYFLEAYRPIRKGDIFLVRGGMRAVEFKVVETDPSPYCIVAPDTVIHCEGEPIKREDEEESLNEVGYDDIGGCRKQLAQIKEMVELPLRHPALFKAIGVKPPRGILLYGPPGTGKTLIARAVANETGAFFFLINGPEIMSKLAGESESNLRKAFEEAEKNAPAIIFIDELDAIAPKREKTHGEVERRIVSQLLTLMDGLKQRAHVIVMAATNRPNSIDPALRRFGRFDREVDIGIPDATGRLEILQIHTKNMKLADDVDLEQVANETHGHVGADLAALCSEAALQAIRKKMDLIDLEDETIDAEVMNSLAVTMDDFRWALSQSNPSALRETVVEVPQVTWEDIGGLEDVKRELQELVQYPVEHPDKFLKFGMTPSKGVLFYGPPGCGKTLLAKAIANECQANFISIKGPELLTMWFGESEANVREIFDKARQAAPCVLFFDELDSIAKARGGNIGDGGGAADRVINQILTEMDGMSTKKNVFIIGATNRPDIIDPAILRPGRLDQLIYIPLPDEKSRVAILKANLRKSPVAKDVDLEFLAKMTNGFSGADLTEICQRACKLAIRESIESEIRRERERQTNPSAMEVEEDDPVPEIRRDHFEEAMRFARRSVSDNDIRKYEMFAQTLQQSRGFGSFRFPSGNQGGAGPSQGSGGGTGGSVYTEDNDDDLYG

B1: biotinylated peptide spanning the conserved C-terminal alpha-helix and flanking residues of FAM104A (C180-G203 of isoform 1) (peptide)
peptide: Biotin-CQGLYFHINQTLREAHFHSLQHRG-OH
SMILES: CC[C@H](C)[C@H](NC(=O)[C@H](Cc1c[nH]cn1)NC(=O)[C@H](Cc1ccccc1)NC(=O)[C@H](Cc1ccc(O)cc1)NC(=O)[C@H](CC(C)C)NC(=O)CNC(=O)[C@H](CCC(N)=O)NC(=O)[C@H](CS)NC(=O)CCCC[C@@H]1SC[C@@H]2NC(=O)N[C@@H]21)C(=O)N[C@@H](CC(N)=O)C(=O)N[C@@H](CCC(N)=O)C(=O)N[C@H](C(=O)N[C@@H](CC(C)C)C(=O)N[C@@H](CCCNC(=N)N)C(=O)N[C@@H](CCC(=O)O)C(=O)N[C@@H](C)C(=O)N[C@@H](Cc1c[nH]cn1)C(=O)N[C@@H](Cc1ccccc1)C(=O)N[C@@H](Cc1c[nH]cn1)C(=O)N[C@@H](CO)C(=O)N[C@@H](CC(C)C)C(=O)N[C@@H](CCC(N)=O)C(=O)N[C@@H](Cc1c[nH]cn1)C(=O)N[C@@H](CCCNC(=N)N)C(=O)NCC(=O)O)[C@@H](C)O
For the molecule B1, the binding result in experiment [1] is given as “binds”.

B2: GST-FAM104A isoform 1 (natural protein)
chain: not shown
As for B2, the binding result in experiment [2] is listed as “binds”.

B3: GST-FAM104A isoform 2 (natural protein)
chain: not shown
Take B3: the binding result in experiment [2] is listed as “binds”.
